Measured values: the domain aggregation screens of Martell et al. (2025)

Assay: soluble fraction after stress (log2 fold change); higher = more stays soluble; pooled small domains, quantitative proteomics
Conditions: stress: pH 4
Method in brief: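 Following acid stress at pH 4, the amount of each small protein domain still soluble was measured in pooled custom libraries by high-throughput quantitative proteomics. Its fold change, on a log2 scale, is higher when more of the domain stayed soluble. This fold change is taken as a measure of aggregation propensity.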

Row | Sequence | soluble fraction (log2)
1 | HMNKYQFESKIHIYRATKRMTQQELADLVGVSRQTIMQLERNRYNPSMMLAYGIAKVFDVTIEDLFDFSEV | 0.0457
2 | HMNKYYQQLLQADPTGFIDPFKDLGTYDSRLNTFKEPVSELLNPFSGRPYSKIWQKRIETMREIFISYIKS | -0.213
3 | HMNLDVEQIKKEALNQLIEIGNENDGIVTIKDFKKIDDISSLDEDDIEDIRNLLIENNIEIFE | -0.641
4 | HMNLEQTIVLGKRLFNNALDTLGKKQRSIKNKQINKLLELLNFKNMNELYQSIGVGDKNPLLMAQMML | -0.045
5 | HMNLESNQYVIDISDSQVINKDEFETILNQNKTKDIVIKSNNNVTFTFEKGSMIGAEGKDNYDFSSQVNY | -0.588
6 | HMNLFNEIEKQYQALQDRSSASLVDLRHLLLDIEELVNSPDYQALAPDQRSTLQAARKELMRRIQKQEN | -0.193
7 | HMNLGDSLFHARRKQGLSQEAVAEQLGVSRQTVSKWEANETLPDIRQSKLMAKLYHTSLDELI | 0.138
8 | HMNLLDYTTLYVTSDGKSVSFGIAGKEIPVSYIAQEAPGTVVIDDTIRIPRKYDMEYILKRFNES | -1.33
9 | HMNLLGDNIRKLRLEKGLGLNEVARLANITGGYLSSIENNKRTNVGTEILESIAKAIGVSVSDFYL | -0.0496
10 | HMNLLGERIREIRMEMGLTAKELAQRASVTPGYISQIEHDQIKPSMNVMMRIAEVLNVPMAALLM | ≥ 0.43
11 | HMNLLPAGTYKLKDLVTAEDEEIGAKKGDVVIAHEDTPPSDRVLGVDIFPVIHKNTSKKIYVSLEDI | 0.101
12 | HMNLMQIHVARPPNQLGVFSQEEVAAGLQSGRFLPTDQAWRDGMSAWTPLSQWAEFSSVVAAV | -0.307
13 | HMNLNLDITTYKLEELENLLKLKPNYKQEQIFEAKTKMEKFILKSNLNESKREELYIFLDNIYNKLTNNLL | -1.34
14 | HMNLPISDREKELLTLLSKGLLYKEIASKLDITIGTVKQHIHNIYHKLHVSNKTEALNLFNK | 0.172
15 | HMNLRLKEVLDEKNMSLVTLSEKTGIEKGNLSAISNNKKNPTVETLSKIAKALQISLAELFESPP | 0.169
16 | HMNLSDIETWLRELSLEKYALAFSEAEIDFETLPELTEDDLKEVGLPVGPRRKVWGAIQLLRTTD | -1.37
17 | HMNLSNVVIRKVQEMILSGELQEGDKLPPEREMTQRLGIGRPALREGLKSLEMLGLVERRHGLGNFIINKV | -0.475
18 | HMNLSPADFSSVRNALGLSLSTVAKESGINRNYLSNFEKKKHFLEETAKVKLRDYYMSIDPDAFAAAL | -0.291
19 | HMNLVGGKINSLMTTKNVTIQDLSERSGLTVSQIELLLSGDKVPSLAVLIKIARGLGVRVGTFL | -0.156
20 | HMNLVRQHTDYAFRLLVALSQAPGKPISTRTLASAADVPYQFASKIMQKLHEEGLVESVMGPFGGFRLVQ | -0.419
21 | HMNLWIDNTQVINDWTEGASERSGSIYLTAGVKPIKMQYFDSVLNAKAILRWQGPGINKSVVPSSALTPG | -0.209
22 | HMNMEDIADKIGRLYDNLPDDLKLMIKYRDIDDMTYDEIARKANLPIGTVRSRLHRARDILLREI | -0.108
23 | HMNMFGIQRRNHLLSLLQEKKSITVQEAAVIFEVAEETIRRDFRTMEGQGLIVRTHGGALLADD | -1.14
24 | HMNMMIIHVNGEKYSFQEPITISELILKLELDSRKIAIEYNLEILPRSLFEITSIKNGDKIEIVHFI | -0.892
25 | HMNMPYGTVKWFNDAKGFGFIAPEDGSADVFVHFSAINSKGFRSLQEGQRVSYEVTTGPKGAQAAGVTPVT | -0.91

Row | Sequence | soluble fraction (log2)
26 | HMNMYTVTGRLVDQDGVPQANALVTIDSSSQQTRTSPQGFYLIKVFGTEPSTIKFLVDGYDPQIVNFTP | -0.278
27 | HMNNDIDRVFAELTVLSQKKGYLVFDDIEKGTEDLSVNEVDWLTNRLLTSGVEIFDDVPDTIK | -1.81
28 | HMNNDSQYLATLQRYYAEHRVLPSYARMLPLLGFASKAAVKKVLERLEVVGMLERTEDGDWAPSERFFER | 0.0419
29 | HMNNGYSINEIAKLMKMTLKVVRRYVASGELKTTKTNNTYSISEEAFNEFKKYIEEGGDAKHAQEVADTFK | -0.554
30 | HMNNIGENIKKYRTKQGLSQEDFAKKSGVKYTTLTKIESGVIKKPSVLVMAKIAKALGVNIEELI | ≥ 0.43
31 | HMNNIINEAQIKQWVEEFYLSVSPRPTRATMIALVHKKIKEETKDGEEGQTVSETLINNFYTALEKEHKRK | 0.22
32 | HMNNIPFIITDERLNVIQSHLVPREVLDHPDRLRRQIDRFTEENQPKTVNYWWGPEHRHIIFYGKSK | 0.281
33 | HMNNIYFSPVVEENNKGLRLDKFLAASFPEFSRSQLQRLILEGNVSNDDVVIADNSQKVRVGDSFQVIVPE | -0.0304
34 | HMNNKSDLLFNHLRQRIATMENGTIFPSVRQLMTEYNVSQSTVSTAIRSLKELGLLEALSRQGMVVRKE | 0.104
35 | HMNNLGSKIKELRIAENLTQEKLAEELNVSFQSISRWENGISTPDISLIPAIARFFGVSTDYLFGLQD | -1.03
36 | HMNNLPDFIKQLRKENNLTQEYVASEIGVSRPTYEQIEKGKRELTISEAEKLAKIFNIPLENFLQGKKGV | -0.0996
37 | HMNNPLPDLLKYFRKKKHLTQEQVAKQLSVSRASYASYETGRIIPGMQHIMELSRILEHDFLFAYTLAVQ | -0.446
38 | HMNNPNFAIQKYVTGSDIKRVRKTLRLTQKKFAELVGVSKATMERWETKEDKITGPVVLLLKILEDHPEY | -0.0904
39 | HMNNQKATAVKVASGIVNLRSGPATSYETLDTVATGETLSVLAEKDGWFQVSRAGRTGWVAGWVVDVIRE | -0.586
40 | HMNNSSIGERLKYQRKIKGYSQEELADRTNVTVRTIQRIEKEEVSPHLNTIKLLAIALDIEVDELVAL | -1.18
41 | HMNNSVAYSTFLNDIRTNTLKDVDMTSNSETINVTKKDGTKYQTVMPMYDRDLLADLSKTDATVTGQP | -0.155
42 | HMNNTIKFSVDIKNSGKRLDIFLSENVTQYTRSYLKRLIENSHVKLNNKILNSPSTKVKFQDQIIINNIE | 0.0707
43 | HMNNTIKFSVDTTNSGKRLDIFLAENIKQFTRSYLKKIISNNQVKLNNLVANSPSIKVKHSDLILINILE | -0.62
44 | HMNNTVLSSVKSINMFLDANGGDAGQAFRIYNNTNPDSNPTESTYIFKVAEDGNTFVKGYLNLNGTTL | 0.378
45 | HMNNVRIEHIDTIGTVRLHKKRGVKRVSLRIHQSGEIRVTQPLYLPFSAGVLFAKSHTEWIMKQKQK | 0.0224
46 | HMNNWRRSLEREVTASLARGDRDIFDGLNRSFEAALITKALEHTGGRRIEAATLLGIGRNTLTRKIQDLGL | -0.79
47 | HMNNYEGIVKSVSNSNVYIQVAGRTIGYTISPHTIIMVNGKNVPASELMPGQHVSYTNKGSKLSYININS | 0.205
48 | HMNNYFPAYKGSATSIAPALKQMGVNNSYAYRSKIAAVNNITGYRGTPAQNTQMLNLLKQGRLIK | -0.156
49 | HMNNYNDSVQKIINYIADNLNENLSVRKLADKMPMSVSHFNRVFQKYTGDSPYAYVMAMRIKKAKYL | -0.565
50 | HMNPAIYIRKNILNLTQEKLSEYLDVTQPTIHRWEESGVIPAKHQRQIREFASEKGIYWNDSWFFSIPDE | -1.2
